Measurements from patent CN110590951A (ANMENGDE MEDICAL TECH SHANGHAI CO LTD, dated 2019).

What was measured:
[1] = target: T1, 重组鼠ROR1蛋白 (recombinant mouse ROR1 protein, ACROBiosystems RO1-M5221) (mouse, UniProt Q9Z139 30-403); test: ELISA, recombinant mouse ROR1 coated at 1 μg/mL, G3 titrated from 15 μg/ml
T1 construct: Bought protein

[2] = target: T2, 重组人ROR1蛋白 (recombinant human ROR1 protein, ACROBiosystems RO1-H522y) (human, UniProt Q01973 30-403); test: ELISA, recombinant human ROR1 coated at 1 μg/mL, G3 titrated from 0.6 μg/ml
T2 construct: Bought protein
T2 sequence (Q01973 30-403 limits assumed): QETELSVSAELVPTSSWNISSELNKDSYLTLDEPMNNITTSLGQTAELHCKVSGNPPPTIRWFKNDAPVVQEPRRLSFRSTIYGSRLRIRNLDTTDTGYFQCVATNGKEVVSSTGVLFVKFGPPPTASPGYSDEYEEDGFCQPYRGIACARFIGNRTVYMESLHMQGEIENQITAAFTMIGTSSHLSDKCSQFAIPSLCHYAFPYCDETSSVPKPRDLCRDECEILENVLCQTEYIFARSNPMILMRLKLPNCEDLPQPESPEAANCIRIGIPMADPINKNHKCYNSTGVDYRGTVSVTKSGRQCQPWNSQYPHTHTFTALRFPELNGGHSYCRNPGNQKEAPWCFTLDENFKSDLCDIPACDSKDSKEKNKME

[3] = target: T3, 人ROR1 on the cell surface (endogenous on JeKo-1 cells; overexpressed on CHO-K1-hROR1 cells) (human, UniProt Q01973 30-937); test: Flow cytometry on JeKo-1 cells (endogenous ROR1), G3 titrated from 20 μg/mL
T3 construct: whole, on cells; also called JeKo-1细胞ROR1蛋白; CHO-K1-hROR1细胞表面的ROR1
T3 sequence (Q01973 30-937): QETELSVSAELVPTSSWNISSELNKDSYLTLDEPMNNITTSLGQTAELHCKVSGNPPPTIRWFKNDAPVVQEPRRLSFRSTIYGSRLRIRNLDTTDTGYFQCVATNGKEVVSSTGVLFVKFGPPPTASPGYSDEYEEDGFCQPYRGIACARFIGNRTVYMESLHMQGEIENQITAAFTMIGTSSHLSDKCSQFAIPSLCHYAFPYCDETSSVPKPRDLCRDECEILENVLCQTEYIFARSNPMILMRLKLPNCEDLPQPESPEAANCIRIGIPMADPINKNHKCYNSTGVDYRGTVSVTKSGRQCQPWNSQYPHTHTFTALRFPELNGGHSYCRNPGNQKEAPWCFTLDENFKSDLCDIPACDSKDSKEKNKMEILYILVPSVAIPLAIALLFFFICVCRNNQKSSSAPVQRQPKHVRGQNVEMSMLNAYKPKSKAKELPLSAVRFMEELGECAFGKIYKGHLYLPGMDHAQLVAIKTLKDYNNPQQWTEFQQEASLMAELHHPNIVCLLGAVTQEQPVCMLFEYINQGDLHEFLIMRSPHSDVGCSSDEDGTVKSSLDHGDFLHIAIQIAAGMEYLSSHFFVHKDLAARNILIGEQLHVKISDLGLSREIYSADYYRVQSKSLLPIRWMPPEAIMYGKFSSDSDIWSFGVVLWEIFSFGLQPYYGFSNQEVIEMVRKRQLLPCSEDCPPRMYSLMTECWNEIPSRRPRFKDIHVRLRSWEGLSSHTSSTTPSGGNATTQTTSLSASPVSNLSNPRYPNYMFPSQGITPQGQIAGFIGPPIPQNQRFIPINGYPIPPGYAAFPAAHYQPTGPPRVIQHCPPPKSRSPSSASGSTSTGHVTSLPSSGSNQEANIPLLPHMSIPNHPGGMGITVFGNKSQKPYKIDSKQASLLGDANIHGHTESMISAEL

[4] = target: T4, 人ROR1蛋白卷曲(Frizzled)域 (recombinant ROR1 Frizzled domain, ACROBiosystems RO1-H5222) (human, UniProt Q01973 165-305); test: ELISA, recombinant ROR1 Frizzled domain coated at 1 μg/mL, G3 titrated from 20 μg/ml
T4 construct: domain: 卷曲(Frizzled)域; Bought domain protein; also called 卷曲结构域; Frizzled结构域
T4 sequence (Q01973 165-305 limits assumed): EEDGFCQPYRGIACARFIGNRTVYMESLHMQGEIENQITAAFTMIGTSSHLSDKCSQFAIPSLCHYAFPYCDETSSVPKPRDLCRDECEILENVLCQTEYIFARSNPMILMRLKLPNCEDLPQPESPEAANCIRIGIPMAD

Measured: binding result

T1 sequence (Q9Z139 30-403 limits assumed): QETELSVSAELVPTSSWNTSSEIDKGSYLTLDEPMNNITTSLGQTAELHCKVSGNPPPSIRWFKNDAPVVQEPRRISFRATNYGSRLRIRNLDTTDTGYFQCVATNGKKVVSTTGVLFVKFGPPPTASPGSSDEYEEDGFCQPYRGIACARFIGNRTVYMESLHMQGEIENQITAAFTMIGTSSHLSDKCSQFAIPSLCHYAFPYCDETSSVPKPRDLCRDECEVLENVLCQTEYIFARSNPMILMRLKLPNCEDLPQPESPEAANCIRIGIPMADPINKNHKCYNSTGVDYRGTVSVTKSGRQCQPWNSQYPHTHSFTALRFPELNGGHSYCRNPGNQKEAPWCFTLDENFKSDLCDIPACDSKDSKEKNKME

B1: 抗ROR1的全人源单克隆抗体G3 (antibody, human IgG1, kappa, V domains shown)
VH: QVQLQQWGAGLLKPSETLSLTCAVYGGSFSGYYWSWIRQPPGKGLEWIGEINHSGSTSYNPSLKSRVTISVDTSKNQFSLKLSSVTAADTAVYYCARGHSSGWYRRYFDLWGRGTLVTVSS
VL: IVLTQSPATLSLSPGERATLSCRASQSVSSYLAWYQQKPGQAPRLLIYDASNRATGIPAKFSGSGSGTDFTLTISSLEPEDFAVYYCQQRSNWPPTFGGGTKVEIKR
notes: Full-length fully human IgG1/kappa, expressed in Expi-CHO-S and purified on Protein A (150 kDa); also called G3单克隆抗体; 抗人ROR1抗体G3
binds: [1] | [2] | [3] | [4]
